{
  "source": "paper PMC4689310",
  "origin": "cited, not measured here",
  "key": {"[1]": {"biological_target": "H3 peptide 1-18 (Homo sapiens) (UniProt P68431)"}, "[2]": {"biological_target": "H4K20me1 peptide (Homo sapiens) (UniProt P62805)"}, "[3]": {"biological_target": "H4K16ac peptide (Homo sapiens) (UniProt P62805)", "assay": "ITC"}, "[4]": {"biological_target": "H3 K4un/K23ac peptide (Homo sapiens) (UniProt P68431)"}, "[5]": {"biological_target": "H3K23ac peptide 13-32 (Homo sapiens) (UniProt P68431)"}, "[6]": {"biological_target": "H3 unmodified K4 peptide (Homo sapiens) (UniProt P68431)"}, "[7]": {"biological_target": "H3K9me3 peptide 1-28 (Homo sapiens) (UniProt P68431)"}, "[8]": {"biological_target": "H3K18ac peptide 1-28 (Homo sapiens) (UniProt P68431)"}, "[9]": {"biological_target": "H3 peptide 1-28 (Homo sapiens) (UniProt P68431)"}},
  "data": [
    {"substance": "DPF3b tandem PHD fingers (from UniProt Q92784)", "values": [
      {"measurement": "Kd", "setting": "[1]", "value": 2.3, "unit": "µM"}
    ]},
    {"substance": "MSL3 chromodomain (from UniProt Q8N5Y2)", "values": [
      {"measurement": "Kd", "setting": "[2]", "value": 10, "unit": "µM"}
    ]},
    {"substance": "TAF1 double bromodomain (from UniProt P21675)", "values": [
      {"measurement": "Kd", "setting": "[3]", "value": 39, "unit": "µM"}
    ]},
    {"substance": "TRIM24 PHD-Bromo (from UniProt O15164)", "values": [
      {"measurement": "Kd", "setting": "[4]", "value": 0.096, "unit": "µM"},
      {"measurement": "Kd", "setting": "[5]", "value": 8.8, "unit": "µM"},
      {"measurement": "Kd", "setting": "[6]", "value": 2.3, "unit": "µM"}
    ]},
    {"substance": "TRIM33 PHD-Bromo (from UniProt Q9UPN9)", "values": [
      {"measurement": "Kd", "setting": "[7]", "value": 0.2, "unit": "µM"},
      {"measurement": "Kd", "setting": "[8]", "value": 0.21, "unit": "µM"},
      {"measurement": "Kd", "setting": "[9]", "value": 0.46, "unit": "µM"}
    ]}
  ]
}
